Test results published in publication PMC7589982.

Biological target: HPV16 E6 oncoprotein, full-length, LexA bait (pGilda/LexA) (human papillomavirus 16) (UniProt P03126)
Assay: two-hybrid; full-length HPV16 E6 in pGilda/LexA as bait; growth on medium lacking leucine, blue colonies, beta-galactosidase activity (unit) with ONPG

UniProt P03126, sequence (P03126 whole entry): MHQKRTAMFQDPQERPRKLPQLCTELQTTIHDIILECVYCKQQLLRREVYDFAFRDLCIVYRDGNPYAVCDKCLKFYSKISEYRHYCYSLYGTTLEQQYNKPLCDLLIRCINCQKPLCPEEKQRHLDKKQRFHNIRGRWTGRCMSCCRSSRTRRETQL

IRF-1 (interferon regulatory factor-1), yeast two-hybrid prey (natural protein)
β-galactosidase activity: 88.2 unit
